In US20040077828A1 (US Dept. of Health and Human Services, published 2004):
Where no end group is shown, it is not given here.

B2: recombinant soluble RANKL (PeproTech) (ligand)
chain: IRAEKAMVDGSWLDLAKRSKLEAQPFAHLTINATDIPSGSHKVSLSSWYHDRGWAKISNMTFSNGKLIVNQDGFYYLYANICFRHHETSGDLATEYLQLMVYVTKTSIKIPSSHTLMKGGSTKYWSGNSEFHFYSINVGGFFKLRSGEEISIEVSNPSLLDPDQDATYFGAFKVRDID
notes: Reagent of the ELISA assays; also called sRANKL
B5: recombinant human secreted Frizzled-related protein-1 (sFRP-1) (other)
chain: SEYDYVSFQSDIGPYQSGRFYTKPPQCVDIPADLRLCHNVGYKKMVLPNLLEHETMAEVKQQASSWVPLLNKNCHAGTQVFLCSLFAPVCLDRPIYPCRWLCEAVRDSCEPVMQFFGFYWPEMLKCDKFPEGDVCIAMTPPNATEASKPQGTTVCPPCDNELKSEAIIEHLCASEFALRMKIKEVKKENGDKKIVPKKKKPLKLGPIKKKDLKKLVLYLKNGADCPCHQLDNLSHHFLIMGRKVKSQYLLTAIHKWDKKNKEFKNFMKKMKNHECPTFQSVFK
notes: also called full-length sFRP-1

Tests used:
[1] = biological target: B5; assay: isothermal titration calorimetry, A-C2 (200 uM) injected into sFRP-1 (10 uM) in PBS
Description: (§1) ITC experiments were performed with a VP-ITC MicroCalorimeter MicroCal, LLC, Northhampton, Mass.) according to the manufacturer's User Manual. In brief, 6 μl aliquots of A-C2 (200 μM, dissolved in PBS) were injected at regular intervals into a chamber containing sFRP-1 (10 μM, also in PBS). Increases in temperature of the chamber resulting from the binding of A-C2 and sFRP-1 were determined as a measure of the heat produced by the binding reaction. Several parameters, included enthalpy and dissociation constant, were calculated from these measurements. This technique is commonly used to quantify the thermodynamic properties of binding interactions between proteins and peptides.
(§2) Binding was evident, as heat was generated when aliquots of AC2 solution were added to a chamber containing sFRP-1 dissolved in PBS. By contrast, no heat was produced when AC2 was added to a chamber containing only PBS.

[2] = biological target: B5; assay: Isothermal titration calorimetry: A-C2 peptide (200 µM in PBS) injected into sFRP-1 (10 µM in PBS); no unit printed in the box
Description: as §1, §2

[3] = biological target: B5; assay: Isothermal titration calorimetry: A-C2 peptide (200 µM in PBS) injected into sFRP-1 (10 µM in PBS)
Description: as §1, §2

[4] = biological target: T1, naturally occurring sFRP-1 present in the cultures; assay: cell-based or functional assay
T1 sequence (Q8C4U3 32-314, species assumed, looked up): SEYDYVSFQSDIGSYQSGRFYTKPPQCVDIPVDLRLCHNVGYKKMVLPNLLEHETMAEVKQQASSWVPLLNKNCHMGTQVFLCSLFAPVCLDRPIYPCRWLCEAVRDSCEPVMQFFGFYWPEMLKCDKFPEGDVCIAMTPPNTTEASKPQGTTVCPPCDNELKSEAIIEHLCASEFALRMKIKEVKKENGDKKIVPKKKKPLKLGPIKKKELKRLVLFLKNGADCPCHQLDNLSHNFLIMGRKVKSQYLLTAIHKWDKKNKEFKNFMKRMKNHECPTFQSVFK

[5] = biological target: B5; assay: phage ELISA, sFRP-1-coated against BSA-coated wells
Description: Amplified phage recovered from bacterial broth after this first enrichment step were subjected to two more rounds of panning in wells coated with sFRP-1 as described in the previous paragraph, except that the phage were incubated for only 2 hours and 1 hour in the second and third panning steps, respectively. After the third round of panning, phage obtained from the sFRP-1-coated well were titered and seeded on a lawn of bacteria to permit isolation of phage from 200 separate colonies. Bacteria from each of these colonies were grown in broth, pelleted by centrifugation and phage retrieved in the supernatant. Each of these phage supernatants was tested for binding to sFRP-1-coated ELISA wells versus wells only coated with the BSA blocking solution. Phage were detected in this assay with primary antibody directed against phage coat protein (Pharmacia Biotech, Uppsala, Sweden, #27-9411-01) and standard detection reagents.
To identify peptide sequences that bind sFRP-1, ˜25×10⁹ phages from a library containing a diverse repertoire of twelve-amino acid residue segments linked to the gene III coat protein of M13 phage were screened. After three successive rounds of panning for phage that bound to ELISA wells preincubated with sFRP-1, the phage preparation selected for its ability to bind sFRP-1 was titered and then plated on a lawn of bacteria. Phage from 200 separate colonies of lysed bacteria were picked, grown in bacterial broth overnight, recovered in supernatant, and tested for their ability to bind preferentially to sFRP-1 versus BSA in an ELISA. Phage that bound at least five times more avidly to sFRP-1 than BSA-coated wells were subjected to nucleotide sequence analysis to determine the identity of the peptide sequence responsible for this binding specificity.

bovine serum albumin = biological target: T2, bovine serum albumin (bovine, UniProt P02769 25-607); assay: ELISA: serial dilutions of soluble RANKL on wells treated with BSA only; detection with RANKL antibody, AP-coupled secondary antibody and pNPP
T2 construct: Control coat; also called BSA
Description: (§3) ELISA experiments were generally performed as previously described (Uren et al., J. Biol. Chem. 275:4374-4382, 2000), with modifications depending on the sFRP binding partner to be tested. Typically, wells were coated with 0.5 or 1 μg of sFRP-1, blocked with BSA (0.2%, 1%, or 4%) and then incubated with putative binding partner overnight at room temperature. When investigating the binding of peptide/AP chimeras, after aspiration of bacterial broths, wells were washed and incubated with p-nitrophenolphosphate (pNPP). Color development was determined at 405 nm with an ELISA reader. For competition experiments, soluble peptides were preincubated with peptide/AP chimeras in bacterial broth for 30 min at room temperature prior to transfer into ELISA wells coated with sFRP-1 or BSA. When testing RANKL binding to sFRP-1, serial dilutions of soluble RANKL were assayed in replicate. Following overnight incubation at room temperature, RANKL solutions were aspirated and bound RANKL was detected by sequential incubations with primary antibody to RANKL, secondary antibody coupled with AP and pNPP. Similar experimental designs were employed when other TNFα family members were examined for binding to sFRPs, and when sFRP-1 derivatives or sFRP-2 were the binding targets for RANKL.
(§4) The possibility that sFRP-1 (SEQ ID NO: 3) and RANKL interact directly with each other was tested using an ELISA assay. […]

[6] = biological target: B5; assay: ELISA: serial dilutions of soluble RANKL on sFRP-1-coated, BSA-blocked wells; detection with RANKL antibody, AP-coupled secondary antibody and pNPP
Description: as §3, §4

[7] = biological target: B2; assay: ELISA: wells coated with sFRP-1 or derivative, incubated with soluble RANKL, bound RANKL detected; triplicates
Description: FIG. 12 is a graph of the binding avidity of several sFRP-1 deletion mutants for RANKL in ELISA experiments. Wells were coated either with full-length sFRP-1 or with any one of a set of epitope-tagged sFRP-1 deletion mutants (Uren et al., J Biol Chem 275:4374-4382, 2000) or BSA control, and then sequentially incubated with soluble RANKL and reagents to detect RANKL bound to the wells. The results shown are the mean +/−S.D. of triplicate measurements from a representative experiment.
ELISA experiments were generally performed as previously described (Uren et al., J. Biol. Chem. 275:4374-4382, 2000), with modifications depending on the sFRP binding partner to be tested. Typically, wells were coated with 0.5 or 1 μg of sFRP-1, blocked with BSA (0.2%, 1%, or 4%) and then incubated with putative binding partner overnight at room temperature. When investigating the binding of peptide/AP chimeras, after aspiration of bacterial broths, wells were washed and incubated with p-nitrophenolphosphate (pNPP). Color development was determined at 405 nm with an ELISA reader. […] Following overnight incubation at room temperature, RANKL solutions were aspirated and bound RANKL was detected by sequential incubations with primary antibody to RANKL, secondary antibody coupled with AP and pNPP. […]

[8] = biological target: T3, alkaline phosphatase itself (UniProt P00634 22-471 = phosphatase, limits assumed); assay: ELISA, sFRP-1-coated wells against BSA wells
T3 construct: Control for the peptide/AP fusions; also called AP
T3 sequence (P00634 22-471 limits assumed): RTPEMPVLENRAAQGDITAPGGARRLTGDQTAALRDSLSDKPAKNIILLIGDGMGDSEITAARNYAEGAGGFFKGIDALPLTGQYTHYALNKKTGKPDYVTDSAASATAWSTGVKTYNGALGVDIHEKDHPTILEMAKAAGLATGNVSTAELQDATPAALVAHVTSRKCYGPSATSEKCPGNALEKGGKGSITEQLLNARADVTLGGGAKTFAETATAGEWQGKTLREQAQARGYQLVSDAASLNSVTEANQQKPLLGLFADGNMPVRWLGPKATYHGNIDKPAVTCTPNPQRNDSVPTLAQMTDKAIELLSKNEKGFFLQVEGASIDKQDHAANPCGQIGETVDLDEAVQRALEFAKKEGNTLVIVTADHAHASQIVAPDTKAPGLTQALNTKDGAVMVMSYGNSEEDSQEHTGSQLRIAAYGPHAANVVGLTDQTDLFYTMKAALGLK

T2 sequence (P02769 25-607 limits assumed): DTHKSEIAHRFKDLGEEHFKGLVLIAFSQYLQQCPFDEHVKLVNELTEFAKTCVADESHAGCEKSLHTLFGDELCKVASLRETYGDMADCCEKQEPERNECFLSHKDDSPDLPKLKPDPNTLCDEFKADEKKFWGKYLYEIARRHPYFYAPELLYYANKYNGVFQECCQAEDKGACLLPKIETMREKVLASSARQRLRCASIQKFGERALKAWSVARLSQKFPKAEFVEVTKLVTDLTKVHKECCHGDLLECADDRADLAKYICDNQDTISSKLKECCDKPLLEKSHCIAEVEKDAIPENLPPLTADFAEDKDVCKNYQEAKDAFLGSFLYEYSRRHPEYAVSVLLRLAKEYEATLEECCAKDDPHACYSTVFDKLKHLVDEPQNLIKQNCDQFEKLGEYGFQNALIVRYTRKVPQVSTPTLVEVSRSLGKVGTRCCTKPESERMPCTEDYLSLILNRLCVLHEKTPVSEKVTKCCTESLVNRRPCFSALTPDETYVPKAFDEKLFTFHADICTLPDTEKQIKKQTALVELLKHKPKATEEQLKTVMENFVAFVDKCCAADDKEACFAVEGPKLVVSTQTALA

Binder: QGTLVDGRWLQL (also called AC2 peptide) [A-C2 synthetic 12-mer peptide]
- Kd [1]: 3.9 µM
- ΔH [2]: -3620
- ΔS [2]: 12.6
- N [3]: 1.14
- TRAP+ multinucleated cells, osteoblast and adult spleen cell co-cultures [4]: 10 fold increase

B1: B-B9 M13 phage (peptide linked to gene III coat protein) (other)
chain: LVDGRWLYNPHH
modifications: not fully specified
notes: the text gives 27; also called B-B9 phage; not shown: M13 phage gene III coat protein
- Specificity (sFRP-1/BSA) [5]: 5 ratio of binding to sFRP-1 wells over BSA wells

Binder: B2
- binding result (bovine serum albumin): no binding (tested: 10 ug/ml)
- EC50 (read off the curve) [6]: ~1 µg/mL

B3: ΔCRD-H/M (other)
single chain: EYDYVSFQSDIGPYQSGRFYTKPPQIAMTPPNATEASKPQGTTVCPPCDNELKSEAIIEHLCASEFALRMKIKEVKKENGDKKIVPKKKKPLKLGPIKKKDLKKLVLYLKNGADCPCHQLDNLSHHFLIMGRKVKSQYLLTAIHKWDKKNKEFKNFMKKMKNHECPTFQSVFKQAYVEQKLISEEDLNSAVDHHHHHH
notes: the sheet prints H/M, the text M/H; also called human sFRP-ΔCRD-M/H; sFRP-1 derivative lacking the CRD
- binding result [7]: no binding

B4: A-E4-expressing M13 phage (peptide linked to gene III coat protein) (other)
chain: VVDGRWVQGLED
modifications: not fully specified
notes: Printed as VVDGRWVQGLED; also called A-E4 phage; not shown: M13 phage gene III coat protein
- Specificity (sFRP-1/BSA) [5]: 10 ratio of binding to sFRP-1 wells over BSA wells

Binder: B5
- binding result [8]: no binding

B6: A-C2-expressing M13 phage (peptide linked to gene III coat protein) (other)
chain: QGTLVDGRWLQL
modifications: not fully specified
notes: also called A-C2 phage; not shown: M13 phage gene III coat protein
- Specificity (sFRP-1/BSA) [5]: 10 ratio of binding to sFRP-1 wells over BSA wells
